According to EP0811683B1, “Antibodies to human gastrin-releasing peptide precursor and use thereof” (Yamaguchi, Ken, priority 1996, dated 1997):
Where no end group is shown, it is not given here.

Assay: Comparison of stability of GRPs in the blood (serum, plasma, aprotinin-containing plasma; Fig. 3)
Format: in vitro ADME
Conditions: 0, 1 and 6 hours, result in words
Procedure: Stabilities in the blood of GRP(1-27) and GRP(31-98) were compared using antibodies to the above-prepared GRP(31-98) and antibodies to the conventional GRP(1-27).
A small amount of GRP(1-27) or GRP(31-98) was added to a serum, plasma, or aprotinin - containing plasma, and the residual concentration of GRP(1-27) and GRP(31-98) was determined at 0, 1, and 6 hours from the addition, and the percentages of the residual concentration were obtained taking the concentration at the starting point (0 hour) as 100%.

GRP(1-27): mature human gastrin-releasing peptide, active peptide of 27 amino acids (VPLPAGGGTVLTKMYPRGNHWAVGHLM; ends and bridges not checked; UniProt P07492 24-50, looked up)
stability in serum or plasma (residual concentration): degraded and disappeared
